The values that follow come from article PMC9355564, “A network of cytosolic (co)chaperones promotes the biogenesis of mitochondrial signal-anchored outer membrane proteins” (eLife, 2022).

By Kd is commonly meant the equilibrium constant for the complex coming apart.

The labels stand for the following.
T1: recombinant Sis1 (S. cerevisiae, UniProt P25294 1-352)
T1 construct: Sis1, yeast Hsp40 co-chaperone; also called Hsp40 co-chaperone Sis1; source: recombinantly expressed and purified
T1 sequence (looked up): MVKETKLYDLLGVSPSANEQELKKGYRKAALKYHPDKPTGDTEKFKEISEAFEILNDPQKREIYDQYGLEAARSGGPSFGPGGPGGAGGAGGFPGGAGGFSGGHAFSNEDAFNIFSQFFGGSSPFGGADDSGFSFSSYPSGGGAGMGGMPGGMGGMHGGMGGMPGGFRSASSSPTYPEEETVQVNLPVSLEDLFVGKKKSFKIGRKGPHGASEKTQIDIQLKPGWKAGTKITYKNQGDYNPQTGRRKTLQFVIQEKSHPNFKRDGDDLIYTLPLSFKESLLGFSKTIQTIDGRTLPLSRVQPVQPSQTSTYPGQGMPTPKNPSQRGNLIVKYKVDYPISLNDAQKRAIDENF

T2: GST-Tom20(35-183) (S. cerevisiae, UniProt P35180 35-183)
T2 construct: also called cytosolic domain of Tom20; source: expressed and purified as described earlier (Papić et al., 2013); not shown: GST, N-terminal, kept
T2 sequence (looked up): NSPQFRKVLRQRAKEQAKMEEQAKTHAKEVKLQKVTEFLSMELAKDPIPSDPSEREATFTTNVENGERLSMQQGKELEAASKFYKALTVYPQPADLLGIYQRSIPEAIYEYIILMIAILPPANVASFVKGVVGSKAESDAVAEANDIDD

B1: GST-Tom70(46-617) (domain or fragment, S. cerevisiae, UniProt P07213 46-617, looked up)
chain: KDEKKDTKDSQKETEGAKKSTAPSNPPIYPVSSNGEPDFSNKANFTAEEKDKYALALKDKGNQFFRNKKYDDAIKYYNWALELKEDPVFYSNLSACYVSVGDLKKVVEMSTKALELKPDYSKVLLRRASANEGLGKFADAMFDLSVLSLNGDFNDASIEPMLERNLNKQAMSKLKEKFGDIDTATATPTELSTQPAKERKDKQENLPSVTSMASFFGIFKPELTFANYDESNEADKELMNGLSNLYKRSPESYDKADESFTKAARLFEEQLDKNNEDEKLKEKLAISLEHTGIFKFLKNDPLGAHEDIKKAIELFPRVNSYIYMALIMADRNDSTEYYNYFDKALKLDSNNSSVYYHRGQMNFILQNYDQAGKDFDKAKELDPENIFPYIQLACLAYRENKFDDCETLFSEAKRKFPEAPEVPNFFAEILTDKNDFDKALKQYDLAIELENKLDGIYVGIAPLVGKATLLTRNPTVENFIEATNLLEKASKLDPRSEQAKIGLAQMKLQQEDIDEAITLFEESADLARTMEEKLQAITFAEAAKVQQRIRSDPVLAKKIQETLAKLREQGLM
notes: Tom70, cytosolic domain, residues 46-617; also called cytosolic domain of Tom70; source: expressed and purified as described earlier (Papić et al., 2013); not shown: GST, N-terminal, kept
B2: TAMRA-labeled Mcr1 peptide, residues 1-39 (peptide, UniProt P36060 1-39, looked up)
peptide: MFSRLSRSHSKALPIALGTVAIAAATAFYFANRNQHSFV
modifications: also: TAMRA label, position not given here
notes: Mcr1, residues 1-39, contain the transmembrane segment; synthesis as in Jores et al., 2016; also called Mcr1(TMS); Mcr1-TMS peptide; source: synthetic peptide
B3: Mcr1-3HA (full length) (natural protein, S. cerevisiae, UniProt P36060 1-302, looked up)
chain: MFSRLSRSHSKALPIALGTVAIAAATAFYFANRNQHSFVFNESNKVFKGDDKWIDLPISKIEEESHDTRRFTFKLPTEDSEMGLVLASALFAKFVTPKGSNVVRPYTPVSDLSQKGHFQLVVKHYEGGKMTSHLFGLKPNDTVSFKGPIMKWKWQPNQFKSITLLGAGTGINPLYQLAHHIVENPNDKTKVNLLYGNKTPQDILLRKELDALKEKYPDKFNVTYFVDDKQDDQDFDGEISFISKDFIQEHVPGPKESTHLFVCGPPPFMNAYSGEKKSPKDQGELIGILNNLGYSKDQVFKF
notes: Mcr1, S. cerevisiae, signal-anchored mitochondrial outer membrane protein (Mcr1mom is its outer membrane isoform); also called Mcr1-FL; yk-Mcr1-3HA; source: in vitro translated in yeast extract; not shown: 3HA, C-terminal, kept
B4: TAMRA-labeled Tom70 peptide, residues 1-32 (peptide, UniProt P07213 1-32, looked up)
peptide: MKSFITRNKTAILATVAATGTAIGAYYYYNQL
modifications: also: TAMRA label, position not given here
notes: Tom70, residues 1-32, contain the transmembrane segment; synthesis as in Jores et al., 2016; also called Tom70(TMS); TMS-labelled peptide of Tom70; source: synthetic peptide

Assay [1] deals with T3, Ssa1-Mcr1(TMS) complex (S. cerevisiae, UniProt P10591 1-642; P36060 1-39, Tetramethylrhodamine (TAMRA), position not stated).
T3 construct: Ssa1, as m37; Mcr1 residues 1-39, as m36; also called substrate-chaperone complex; Ssa1/substrate complex; source: formed beforehand by adding 10 µM recombinant Ssa1 to 2 µM TAMRA-labeled Mcr1 peptide
T3 sequence (P10591 whole entry, the tested form may be a part, one chain of several): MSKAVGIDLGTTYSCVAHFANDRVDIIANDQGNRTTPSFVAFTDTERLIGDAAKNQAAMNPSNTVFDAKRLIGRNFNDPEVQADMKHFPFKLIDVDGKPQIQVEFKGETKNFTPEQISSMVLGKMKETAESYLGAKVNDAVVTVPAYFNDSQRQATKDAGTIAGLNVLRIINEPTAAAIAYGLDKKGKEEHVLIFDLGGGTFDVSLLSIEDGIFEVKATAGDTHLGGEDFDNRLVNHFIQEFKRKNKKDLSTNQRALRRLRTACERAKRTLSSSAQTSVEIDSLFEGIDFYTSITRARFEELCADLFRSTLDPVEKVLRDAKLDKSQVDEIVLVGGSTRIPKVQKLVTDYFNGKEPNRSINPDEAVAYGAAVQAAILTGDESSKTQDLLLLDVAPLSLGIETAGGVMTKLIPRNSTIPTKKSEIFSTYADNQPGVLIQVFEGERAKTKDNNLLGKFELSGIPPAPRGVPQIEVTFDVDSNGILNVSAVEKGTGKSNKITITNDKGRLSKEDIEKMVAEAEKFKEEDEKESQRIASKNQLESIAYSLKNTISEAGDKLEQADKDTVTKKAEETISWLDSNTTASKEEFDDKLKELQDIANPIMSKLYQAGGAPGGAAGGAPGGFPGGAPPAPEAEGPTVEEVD
In words: fluorescence polarisation; fluorescence anisotropy, 2 µM TAMRA-labeled peptide, 30 °C; single additions of 10 µM Ssa1, 30 µM Sis1, 10 µM GST-Tom70, GST, BSA or 1 mM ATP alone or in the indicated order. To be noted: both partners purified.

For assay [2], the target named is B1. The description is as above. As to conditions: both partners purified.
The target of assay [3] is T4, recombinant Ssa1 (S. cerevisiae, UniProt P10591 1-642).
T4 construct: Ssa1, yeast cytosolic Hsp70 chaperone; also called Hsp70 Ssa1; source: recombinantly expressed and purified
T4 sequence (P10591 whole entry): as the sequence (P10591 whole entry, the tested form may be a part, one chain of several) above
In words: fluorescence polarisation; fluorescence anisotropy titration, 2 µM TAMRA-labeled peptide with increasing concentrations of Ssa1 or Sis1, 30 °C; Kd from hyperbolic regression of the difference in anisotropy. As to conditions: both partners purified.

Assay [4] concerns the target T1, recombinant Sis1. Described as above. To be noted: both partners purified.
In assay [5] the target is T2, GST-Tom20(35-183). In words: pull-down; purified GST, GST-Tom20 or GST-Tom70 on glutathione sepharose beads blocked with 5% BSA, mixed with cleared in vitro translation reactions (yeast extract) of HA-tagged proteins; ATP added every 30 min; 20 mM Hepes, 100 mM NaCl, 1 mM MgCl2, pH 7.25; anti-HA blot. To be noted: one partner purified.

Ends that are not written are not given here.

For the molecule B1, in assay [1], the binding result was “binds”.
Consider B2, for which, in assay [2], the binding result is “binds”. Also, the results for the Kd in assay [3] and in assay [4] were 3.27 µM and 25.8 µM, respectively.
Regarding B3, the “fold binding to GST-Tom20 relative to GST-Tom70 (after normalising to GST)” value in assay [5] was determined as 4 fold.
Turning to B4, the Kd was 2.42 µM in assay [3] and 18.3 µM in assay [4].
